Laboratory results from publication PMC3120833, “The p53 Tumor Suppressor Is Stabilized by Inhibitor of Growth 1 (ING1) by Blocking Polyubiquitination” (PLoS ONE, 2011).

Biological target: T1, FLAG-ubiquitin, recombinant (UniProt P0CG47 1-76)
T1 construct: ubiquitin, the cut product of a ubiquitin precursor; source: bought: Boston Biochem
Assay: SPR; Biacore 3000, 25°C; FLAG-ubiquitin immobilised on CM-5 chip by amine cross-linking; increasing amounts of GST-ING1 injected; blank reference subtracted; three experiments; steady-state affinity and kinetic data
Settings: both partners purified

B1: GST-ING1b, full length, recombinant (natural protein, human, UniProt Q9UK53-2 1-279, looked up)
chain: MLSPANGEQLHLVNYVEDYLDSIESLPFDLQRNVSLMREIDAKYQEILKELDECYERFSRETDGAQKRRMLHCVQRALIRSQELGDEKIQIVSQMVELVENRTRQVDSHVELFEAQQELGDTAGNSGKAGADRPKGEAAAQADKPNSKRSRRQRNNENRENASSNHDHDDGASGTPKEKKAKTSKKKKRSKAKAEREASPADLPIDPNEPTYCLCNQVSYGEMIGCDNDECPIEWFHFSCVGLNHKPKGKWYCPKCRGENEKTMDKALEKSKKERAYNR
notes: ING1 isoform p33ING1b, full length
Kd: ~100 nM
